Results: patent publication US20130122568
Substitutions are numbered along the chain they refer to.

Columns and labels:
Experiment in all cases: cleavage_in_vitro
[1] = target: T1, PstI (Providencia stuartii 164) (UniProt P00640); details: NEB3, 37 C
T1 sequence: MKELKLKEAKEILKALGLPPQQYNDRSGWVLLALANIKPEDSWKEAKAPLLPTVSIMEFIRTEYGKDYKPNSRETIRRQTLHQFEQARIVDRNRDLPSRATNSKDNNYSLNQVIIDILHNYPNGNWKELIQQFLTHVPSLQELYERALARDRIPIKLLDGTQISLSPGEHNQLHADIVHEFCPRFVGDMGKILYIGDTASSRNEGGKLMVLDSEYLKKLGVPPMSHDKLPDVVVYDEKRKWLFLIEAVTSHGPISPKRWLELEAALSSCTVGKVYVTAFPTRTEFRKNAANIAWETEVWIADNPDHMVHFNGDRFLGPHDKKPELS

[2] = test system: T2, SbfI-HF K251A (Streptomyces species Bf-61); details: NEB1, 37 C
T2 sequence: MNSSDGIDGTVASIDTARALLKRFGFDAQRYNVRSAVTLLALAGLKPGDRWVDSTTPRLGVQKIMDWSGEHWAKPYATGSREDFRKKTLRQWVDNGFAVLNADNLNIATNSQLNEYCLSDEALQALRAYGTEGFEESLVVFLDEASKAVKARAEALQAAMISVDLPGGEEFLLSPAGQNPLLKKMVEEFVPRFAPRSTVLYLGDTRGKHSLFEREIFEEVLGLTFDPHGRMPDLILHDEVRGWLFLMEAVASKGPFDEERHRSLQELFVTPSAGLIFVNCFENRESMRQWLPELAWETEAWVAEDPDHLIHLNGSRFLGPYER

[3] = test system: T3, BsmBI (Bacillus stearothermophilus); details: NEB3, 55 C
T3 sequence: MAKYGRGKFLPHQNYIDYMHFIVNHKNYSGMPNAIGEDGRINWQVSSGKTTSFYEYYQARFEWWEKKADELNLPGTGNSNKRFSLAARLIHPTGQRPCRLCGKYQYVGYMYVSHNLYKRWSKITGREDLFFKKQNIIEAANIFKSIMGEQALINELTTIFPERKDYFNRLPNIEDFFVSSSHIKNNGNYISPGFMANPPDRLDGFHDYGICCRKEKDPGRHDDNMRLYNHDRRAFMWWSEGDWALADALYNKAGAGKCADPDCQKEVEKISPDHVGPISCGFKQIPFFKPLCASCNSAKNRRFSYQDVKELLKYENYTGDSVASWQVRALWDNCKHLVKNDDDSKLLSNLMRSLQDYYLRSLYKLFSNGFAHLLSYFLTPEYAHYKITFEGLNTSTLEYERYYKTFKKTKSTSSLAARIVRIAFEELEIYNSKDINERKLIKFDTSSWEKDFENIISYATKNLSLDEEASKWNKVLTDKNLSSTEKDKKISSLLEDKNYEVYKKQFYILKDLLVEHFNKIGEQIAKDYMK

[4] = target: T4, HindIII (Haemophilus influenzae Rd) (UniProt P43870); details: NEB2, 37 C
T4 sequence: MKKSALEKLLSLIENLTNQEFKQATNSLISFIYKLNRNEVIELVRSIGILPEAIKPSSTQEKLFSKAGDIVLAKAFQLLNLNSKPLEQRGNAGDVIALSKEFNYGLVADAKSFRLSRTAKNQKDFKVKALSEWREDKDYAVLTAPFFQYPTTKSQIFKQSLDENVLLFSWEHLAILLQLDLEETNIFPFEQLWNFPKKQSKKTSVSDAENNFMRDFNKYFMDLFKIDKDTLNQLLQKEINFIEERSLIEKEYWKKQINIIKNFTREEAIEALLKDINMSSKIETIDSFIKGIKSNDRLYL

[5] = target: T5, BamHI (Bacillus amyloliquefaciens) (UniProt P23940); details: NEB3, 37 C
T5 sequence: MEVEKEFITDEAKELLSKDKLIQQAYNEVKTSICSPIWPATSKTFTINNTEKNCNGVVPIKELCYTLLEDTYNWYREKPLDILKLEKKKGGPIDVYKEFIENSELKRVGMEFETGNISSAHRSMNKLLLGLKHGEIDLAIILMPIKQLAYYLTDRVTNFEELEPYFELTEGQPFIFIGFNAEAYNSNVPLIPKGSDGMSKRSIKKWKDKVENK

[6] = test system: T6, SbfI (Streptomyces species Bf-61); details: NEB1, 37 C
T6 sequence: T2 sequence with A251K

Substance: lambda phage DNA
- activity (fidelity index) [1]: 120
- activity (fidelity index) [2]: 1000
- activity (fidelity index) [3]: 120
- activity (fidelity index) [4]: 250
- activity (fidelity index) [5]: 32
- activity (fidelity index) [6]: 32
